Percent of added apoA-I bound (5 ug apoA-I/10 ug ON) and stoichiometry N (apoA-I molecules per nanoparticle) data for one substance are collected here from article PMC4861216.

Values joined by “and” are separate entries in the source; they are usually repeats but may differ in a detail not shown here. Equal values may be shown once.

This experiment concerns the target protamine-oligonucleotide nanoparticles (proticles) (salmon). In words: co-sedimentation.

Consider “apolipoprotein A-I (from UniProt P02647 19-267) (natural protein)”, for which the percent of added apoA-I bound (5 ug apoA-I/10 ug ON) turned out to be 80%; the stoichiometry N (apoA-I molecules per nanoparticle) is 14000 and 15000.
